Measurements published in PMC2064680 (The Journal of Cell Biology, 2006).
Where “and” joins values, the source holds several entries; their conditions need not be identical. Equal values may be shown once.

T1: ESCRT-I purified from E. coli (Vps23, Vps28, Vps37) (yeast, UniProt P25604 1-385; Q02767 1-242; Q99176 1-213)
T1 sequence (looked up) 1: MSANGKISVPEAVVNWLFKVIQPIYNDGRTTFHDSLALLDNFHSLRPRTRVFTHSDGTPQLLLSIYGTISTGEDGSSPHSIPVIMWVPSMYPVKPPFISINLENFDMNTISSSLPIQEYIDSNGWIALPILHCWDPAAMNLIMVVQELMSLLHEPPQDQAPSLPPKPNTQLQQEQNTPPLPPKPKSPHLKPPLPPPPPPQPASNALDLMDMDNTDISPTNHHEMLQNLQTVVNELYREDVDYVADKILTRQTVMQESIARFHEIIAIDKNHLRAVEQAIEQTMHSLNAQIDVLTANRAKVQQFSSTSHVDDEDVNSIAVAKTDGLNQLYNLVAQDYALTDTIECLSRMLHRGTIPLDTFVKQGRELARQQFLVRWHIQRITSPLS
T1 sequence (looked up) 2: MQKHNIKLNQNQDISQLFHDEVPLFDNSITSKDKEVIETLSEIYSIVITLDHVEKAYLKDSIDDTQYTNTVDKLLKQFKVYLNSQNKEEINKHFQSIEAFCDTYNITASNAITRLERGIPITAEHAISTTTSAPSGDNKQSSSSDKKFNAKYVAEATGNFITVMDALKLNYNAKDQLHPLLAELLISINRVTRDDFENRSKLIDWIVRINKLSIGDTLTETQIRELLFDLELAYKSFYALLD
T1 sequence (looked up) 3: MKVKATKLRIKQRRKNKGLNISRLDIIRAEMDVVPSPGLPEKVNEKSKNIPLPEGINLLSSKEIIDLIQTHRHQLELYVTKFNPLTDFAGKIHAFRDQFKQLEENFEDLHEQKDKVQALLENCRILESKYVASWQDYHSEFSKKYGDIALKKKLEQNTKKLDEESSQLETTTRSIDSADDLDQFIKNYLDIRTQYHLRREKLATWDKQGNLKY


Columns and labels:
[1] = biological target: ESCRT-I purified from E. coli (Vps23, Vps28, Vps37) (yeast) (UniProt P25604); experiment: cross-linking
[2] = biological target: T1, ESCRT-I purified from E. coli (Vps23, …)

| stoichiometry N [1] | stoichiometry N [2] | Molecule |
| --- | --- | --- |
| 2 and 3 | – | ESCRT-I purified from E. coli (Vps23, Vps28, Vps37) (from UniProt P25604 1-385; Q02767 1-242; Q99176 1-213) (complex) |
| – | 1 | Mvb12, E. coli-expressed (unpublished in vitro analyses) (natural protein, yeast, UniProt P42939 1-101, looked up) MNNNVEELLRRIPLYNKYGKDFPQETVTRFQMPEFKLPALQPTRDLLCPWYEECDNITKVCQLHDSSNKKFDQWYKEQYLSKKPPGIVGNTLLSPSRKDNS |
